The supplement of paper PMC7877785
± gives the uncertainty stated by the source.

Experiment: self-splicing fitness, log relative to wild type (ln ratio); higher = more splicing; Tetrahymena group I intron in knt gene, E. coli kanamycin selection, DiMSum; sequences stand for … in CUCUCU…GGAGGGAAAAGUUAUCAGGCAUGCACCUGGUAGCUAGUCUUUAAACCAAUAGAUUGCAUCGGUUUAAAAGGCAAGACCGUCAAAUUGCGGGAAAGGGGUCAACAGCCGUUCAGUACCAAGUCUCAGGGGAAACUUUGAGAUGGCCUUGCAAAGGGUAUGGUAAUAAGCUGACGGACAUGGUCCUAACCACGCAGCCAAGUCCUAAGUCAACAGAUCUUCUGUUGAUAUGGAUGCAGUUCACAGACUAAAUGUCGGUCGGGGAAGAUGUAUUCUUCUCAUAAGAUAUAGUCGGACCUCUCCUUAAUGGGAGCUAGCGGAUGAAGUGAUGCAACACUGGAGCCGCUGGGAACUAAUUUGUAUGCGAAAGUAUAUUGAUUAGUUUUGGAGUACUCGUGGUCG
Outline: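 Fitness was computed with DiMSum as the error-weighted combination of replicate fold changes, kanamycin versus none, each normalised to wild type. The library randomised all eight intron nucleotides of the P1ex region, with the intron placed in the knt kanamycin-resistance gene on pET-22b(+) in E. coli BL21(DE3). Six replicate transformations were grown overnight at 37°C or 30°C on LB agar with or without 25 μg/mL kanamycin, plus 100 μg/mL carbenicillin, 50 μM IPTG and 0.2% rhamnose. Pooled colonies were amplicon-sequenced on an Illumina HiSeq 2500.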

Sequence	self-splicing fitness (ln) (37 °C)	self-splicing fitness (ln) (30 °C)
UAUAAGCAAUAUUACGUAGC	-2.05 ± 0.36	
UAUAAGCAAUAUUACGUAGG	-0.609 ± 0.27	-3 ± 0.27
UAUAAGCAAUAUUACGUAGU	-2.07 ± 0.25	-3.65 ± 0.25
UAUAAGCAAUAUUACGUAUC	-2.03 ± 0.19	-1.88 ± 0.17
UAUAAGCAAUAUUACGUUAC	-2.46 ± 0.23	-3.45 ± 0.21
UAUAAGCAAUAUUACGUUCG	0.0904 ± 0.17	-0.846 ± 0.12
UAUAAGCAAUAUUACGUUUG	-1.61 ± 0.14	-1.84 ± 0.11
UAUCAGCAAUAUUACGAACA	-0.206 ± 0.096	-0.0668 ± 0.089
UAUCAGCAAUAUUACGACAC	0.634 ± 0.23	-2.03 ± 0.2
UAUCAGCAAUAUUACGACCG	0.738 ± 0.11	-0.12 ± 0.081
UAUCAGCAAUAUUACGAGCA	-0.124 ± 0.11	-0.827 ± 0.084
UAUCAGCAAUAUUACGAUCA	0.19 ± 0.14	-0.115 ± 0.11
UAUCAGCAAUAUUACGAUCC	0.203 ± 0.13	-1.32 ± 0.11
UAUCAGCAAUAUUACGAUGA	0.19 ± 0.099	-0.667 ± 0.075
UAUCAGCAAUAUUACGAUGC	-1.82 ± 0.22	-3.83 ± 0.37
UAUCAGCAAUAUUACGAUUC	-0.0952 ± 0.092	-0.925 ± 0.081
UAUCAGCAAUAUUACGCACA	0.32 ± 0.14	-0.305 ± 0.087
UAUCAGCAAUAUUACGCAUC	-0.409 ± 0.12	-1.87 ± 0.085
UAUCAGCAAUAUUACGCCGC	-2.02 ± 0.27	-1.58 ± 0.19
UAUCAGCAAUAUUACGGACA	-0.681 ± 0.17	0.27 ± 0.15
UAUCAGCAAUAUUACGGCGA	1.02 ± 0.13	-0.382 ± 0.1
UAUCAGCAAUAUUACGGCUG	-1.78 ± 0.15	-3.56 ± 0.2
UAUCAGCAAUAUUACGGGAG	-1.17 ± 0.098	-1.83 ± 0.087
UAUCAGCAAUAUUACGGGUC	-1.3 ± 0.12	-2.27 ± 0.12
UAUCAGCAAUAUUACGGGUG	-0.102 ± 0.064	-0.736 ± 0.044

Sequence	self-splicing fitness (ln) (37 °C)	self-splicing fitness (ln) (30 °C)
UAUCAGCAAUAUUACGGUCC	-0.955 ± 0.19	-2.18 ± 0.13
UAUCAGCAAUAUUACGGUGC	-1.14 ± 0.14	-3.27 ± 0.19
UAUCAGCAAUAUUACGUCCC	0.683 ± 0.26	-2.83 ± 0.34
UAUCAGCAAUAUUACGUCUC	-1.13 ± 0.24	-2.46 ± 0.24
UAUCAGCAAUAUUACGUCUU	-0.155 ± 0.091	-1.65 ± 0.082
UAUCAGCAAUAUUACGUGUA	0.204 ± 0.079	-0.198 ± 0.069
UAUCAGCAAUAUUACGUUCA	0.345 ± 0.15	-0.267 ± 0.11
UAUCAGCAAUAUUACGUUCG	0.113 ± 0.11	-0.844 ± 0.085
UAUCAGCAAUAUUACGUUCU	-1.03 ± 0.13	-2.22 ± 0.11
UAUCAGCAAUAUUACGUUGA	-1.95 ± 0.18	-2.15 ± 0.18
UAUCAGCAAUAUUACGUUUG	-0.266 ± 0.092	-1.4 ± 0.068
UAUGAGCAAUAUUACGAACA	-0.662 ± 0.14	-2.47 ± 0.24
UAUGAGCAAUAUUACGAUCC	-3.06 ± 0.47	
UAUGAGCAAUAUUACGAUUA	0.467 ± 0.093	-0.445 ± 0.094
UAUGAGCAAUAUUACGAUUG	-1.11 ± 0.2	-1.94 ± 0.17
UAUGAGCAAUAUUACGCCCA	0.171 ± 0.49	-2.3 ± 0.27
UAUGAGCAAUAUUACGCUCG	-2.2 ± 0.35	-2.09 ± 0.21
UAUGAGCAAUAUUACGGAAA		-1.13 ± 0.49
UAUGAGCAAUAUUACGGAUA	0.104 ± 0.21	-2 ± 0.23
UAUGAGCAAUAUUACGGCAG	-0.674 ± 0.27	-1.5 ± 0.25
UAUGAGCAAUAUUACGGCAU	-2.05 ± 0.41	-2.94 ± 0.27
UAUGAGCAAUAUUACGGGAA	-2.7 ± 0.41	
UAUGAGCAAUAUUACGGGAC	-1.11 ± 0.17	
UAUGAGCAAUAUUACGGGAU	-2.35 ± 0.29	-3.06 ± 0.21
UAUGAGCAAUAUUACGUACC	-1.86 ± 0.43	-2.28 ± 0.46

Sequence	self-splicing fitness (ln) (37 °C)	self-splicing fitness (ln) (30 °C)
UAUGAGCAAUAUUACGUAGG	-2.41 ± 0.21	-4.19 ± 0.34
UAUGAGCAAUAUUACGUCGC	-2.45 ± 0.39	-4.2 ± 0.39
UAUGAGCAAUAUUACGUGAU	-2.76 ± 0.25	-3.04 ± 0.15
UAUGAGCAAUAUUACGUGCC	-2.28 ± 0.31	-4.14 ± 0.46
UAUGAGCAAUAUUACGUUGG	-2.24 ± 0.22	-4.07 ± 0.3
UAUUAGCAAUAUUACGACGU	-0.561 ± 0.17	-1.02 ± 0.2
UAUUAGCAAUAUUACGACUC	-1.08 ± 0.3	-2.24 ± 0.21
UAUUAGCAAUAUUACGAGAU	-2.01 ± 0.34	
UAUUAGCAAUAUUACGAUCU	0.167 ± 0.17	-0.883 ± 0.12
UAUUAGCAAUAUUACGCGGA	-1.08 ± 0.13	-2.1 ± 0.2
UAUUAGCAAUAUUACGGACG	0.171 ± 0.12	-0.257 ± 0.11
UAUUAGCAAUAUUACGGAGA	-2.18 ± 0.32	-2.09 ± 0.25
UAUUAGCAAUAUUACGGCUG	0.0834 ± 0.13	-0.432 ± 0.079
UAUUAGCAAUAUUACGGUUC	-3 ± 0.29	-3.84 ± 0.39
UAUUAGCAAUAUUACGUAAU	-1.93 ± 0.24	-3.24 ± 0.26
UAUUAGCAAUAUUACGUACG	-0.262 ± 0.09	-0.0813 ± 0.071
UCAAAGCAAUAUUACGAGCC		-2.27 ± 0.23
UCAAAGCAAUAUUACGAUAA	-0.335 ± 0.13	-1.43 ± 0.11
UCAAAGCAAUAUUACGAUGU	-0.341 ± 0.081	-1.09 ± 0.074
UCAAAGCAAUAUUACGAUUG	-0.73 ± 0.11	-2.46 ± 0.14
UCAAAGCAAUAUUACGCACG	-0.632 ± 0.16	-1.18 ± 0.11
UCAAAGCAAUAUUACGCAGU	-3.42 ± 0.31	-3.16 ± 0.19
UCAAAGCAAUAUUACGCCGA	-0.381 ± 0.12	-1.49 ± 0.15
UCAAAGCAAUAUUACGCGGC	-2.59 ± 0.23	-3.92 ± 0.3
UCAAAGCAAUAUUACGCUAA	-2.87 ± 0.27	-3.48 ± 0.25

Sequence	self-splicing fitness (ln) (37 °C)	self-splicing fitness (ln) (30 °C)
UCAAAGCAAUAUUACGCUUG	-2.58 ± 0.26	-2.27 ± 0.14
UCAAAGCAAUAUUACGGCCA	-0.278 ± 0.11	-0.546 ± 0.13
UCAAAGCAAUAUUACGGUGG	-1.05 ± 0.083	-1.79 ± 0.058
UCAAAGCAAUAUUACGUACG	0.0719 ± 0.077	-0.29 ± 0.067
UCAAAGCAAUAUUACGUACU	-2.28 ± 0.37	-3.16 ± 0.45
UCAAAGCAAUAUUACGUGCG	-0.496 ± 0.064	-1.13 ± 0.045
UCACAGCAAUAUUACGACGG	0.353 ± 0.086	-0.234 ± 0.066
UCACAGCAAUAUUACGACUU	-1.65 ± 0.12	-3.28 ± 0.2
UCACAGCAAUAUUACGAGAG	-2.63 ± 0.19	-3.55 ± 0.16
UCACAGCAAUAUUACGAGCG	-0.305 ± 0.093	-0.409 ± 0.064
UCACAGCAAUAUUACGCUAC	-2.77 ± 0.21	-3.12 ± 0.19
UCACAGCAAUAUUACGGAUG	-1.89 ± 0.13	-2.4 ± 0.12
UCACAGCAAUAUUACGGGAU	-2.36 ± 0.24	-3.45 ± 0.23
UCACAGCAAUAUUACGGGUG	-1.67 ± 0.083	-2.37 ± 0.09
UCACAGCAAUAUUACGGGUU	-2.33 ± 0.12	-3.77 ± 0.16
UCACAGCAAUAUUACGGUCU	-1.67 ± 0.11	-1.01 ± 0.081
UCACAGCAAUAUUACGUCCC	-2.01 ± 0.45	-4.32 ± 0.42
UCACAGCAAUAUUACGUGGU	-3.15 ± 0.18	-4.05 ± 0.19
UCACAGCAAUAUUACGUGUC	-2.6 ± 0.2	-3.55 ± 0.2
UCACAGCAAUAUUACGUUAC	-2.06 ± 0.16	-3.74 ± 0.23
UCACAGCAAUAUUACGUUAG	-1.49 ± 0.088	-2.17 ± 0.077
UCACAGCAAUAUUACGUUCU	-1.5 ± 0.13	-3.63 ± 0.22
